This is an account of results in paper PMC6910952 (Nature Communications, 2019).

Where a chain is given by its changes, count along the chain named. Numbers in names are those of the source. No end group written: not given here.

The labels stand for the following.
T1: His6-yNpl4^113–580 (Saccharomyces cerevisiae, UniProt P33755 113-580)
T1 construct: codon-optimized synthetic cDNA; also called WT; WT #1; source: E. coli Rosetta (DE3), purified (Ni-NTA, Resource Q); also in lysate, mixed with cells expressing GST-yUfd1 for co-purification; not shown: His6, N-terminal, kept
T1 sequence (looked up): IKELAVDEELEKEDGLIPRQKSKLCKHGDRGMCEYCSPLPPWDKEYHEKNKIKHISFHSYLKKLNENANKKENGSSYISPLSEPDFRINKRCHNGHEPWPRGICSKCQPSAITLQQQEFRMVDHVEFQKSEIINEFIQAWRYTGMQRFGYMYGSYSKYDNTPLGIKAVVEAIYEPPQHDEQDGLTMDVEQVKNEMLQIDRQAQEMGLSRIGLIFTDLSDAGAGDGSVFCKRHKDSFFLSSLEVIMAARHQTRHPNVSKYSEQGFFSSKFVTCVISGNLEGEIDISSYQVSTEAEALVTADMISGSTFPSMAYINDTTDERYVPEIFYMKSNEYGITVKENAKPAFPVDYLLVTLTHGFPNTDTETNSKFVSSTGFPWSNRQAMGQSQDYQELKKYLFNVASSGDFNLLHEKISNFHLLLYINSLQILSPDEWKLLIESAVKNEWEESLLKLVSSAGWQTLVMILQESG

B1: GST-yNpl4 I575A (natural protein, Saccharomyces cerevisiae, UniProt P33755 1-580, looked up)
chain: MLIRFRSKNGTHRVSCQENDLFGTVIEKLVGNLDPNADVDTFTVCEKPGQGIHAVSELADRTVMDLGLKHGDMLILNYSDKPANEKDGVNVEIGSVGIDSKGIRQHRYGPLRIKELAVDEELEKEDGLIPRQKSKLCKHGDRGMCEYCSPLPPWDKEYHEKNKIKHISFHSYLKKLNENANKKENGSSYISPLSEPDFRINKRCHNGHEPWPRGICSKCQPSAITLQQQEFRMVDHVEFQKSEIINEFIQAWRYTGMQRFGYMYGSYSKYDNTPLGIKAVVEAIYEPPQHDEQDGLTMDVEQVKNEMLQIDRQAQEMGLSRIGLIFTDLSDAGAGDGSVFCKRHKDSFFLSSLEVIMAARHQTRHPNVSKYSEQGFFSSKFVTCVISGNLEGEIDISSYQVSTEAEALVTADMISGSTFPSMAYINDTTDERYVPEIFYMKSNEYGITVKENAKPAFPVDYLLVTLTHGFPNTDTETNSKFVSSTGFPWSNRQAMGQSQDYQELKKYLFNVASSGDFNLLHEKISNFHLLLYINSLQILSPDEWKLLIESAVKNEWEESLLKLVSSAGWQTLVMALQESG
notes: Npl4 of Saccharomyces cerevisiae (yNpl4), full length; source: E. coli Rosetta (DE3) (pGEX-6P1), purified (Glutathione Sepharose FF, Resource Q); not shown: GST, N-terminal, kept
B2: GST-yNpl4 M574A (natural protein, Saccharomyces cerevisiae, UniProt P33755 1-580, looked up)
chain: B1 chain with M574A, A575I
notes: as for B1
B3: FlAsH-labeled His6-SUMO-yUfd1^288–305-GWCCPGCC E296A (peptide, UniProt P53044 288-305, looked up)
chain: {His6-SUMO}-EPAKLDLPAGQLFFGFPMGWCCPGCC
modifications: cysteine pairing not given here; also: FlAsH label bound to CCPGCC motif
notes: Ufd1 of Saccharomyces cerevisiae (yUfd1), residues 288-305 (NBM); also called yUfd1 E296A; source: E. coli Rosetta (DE3) (pCold-SUMO), purified (Ni-NTA, Resource Q), labeled with FlAsH-EDT2; not shown: His6, N-terminal, kept; SUMO, N-terminal, kept
B4: FlAsH-labeled His6-SUMO-yUfd1^288–305-GWCCPGCC L294A (peptide, UniProt P53044 288-305, looked up)
chain: {His6-SUMO}-EPAKLDAPEGQLFFGFPMGWCCPGCC
modifications: cysteine pairing not given here; also: FlAsH label bound to CCPGCC motif
notes: Ufd1 of Saccharomyces cerevisiae (yUfd1), residues 288-305 (NBM); also called yUfd1 L294A; source: E. coli Rosetta (DE3) (pCold-SUMO), purified (Ni-NTA, Resource Q), labeled with FlAsH-EDT2; not shown: His6, N-terminal, kept; SUMO, N-terminal, kept
B5: FlAsH-labeled His6-SUMO-yUfd1^288–305-GWCCPGCC G297L (peptide, UniProt P53044 288-305, looked up)
chain: {His6-SUMO}-EPAKLDLPELQLFFGFPMGWCCPGCC
modifications: cysteine pairing not given here; also: FlAsH label bound to CCPGCC motif
notes: Ufd1 of Saccharomyces cerevisiae (yUfd1), residues 288-305 (NBM); also called yUfd1 G297L; source: E. coli Rosetta (DE3) (pCold-SUMO), purified (Ni-NTA, Resource Q), labeled with FlAsH-EDT2; not shown: His6, N-terminal, kept; SUMO, N-terminal, kept
B6: FlAsH-labeled His6-SUMO-yUfd1^288–305-GWCCPGCC F301A (peptide, UniProt P53044 288-305, looked up)
chain: {His6-SUMO}-EPAKLDLPEGQLFAGFPMGWCCPGCC
modifications: cysteine pairing not given here; also: FlAsH label bound to CCPGCC motif
notes: Ufd1 of Saccharomyces cerevisiae (yUfd1), residues 288-305 (NBM); also called yUfd1 F301A; source: E. coli Rosetta (DE3) (pCold-SUMO), purified (Ni-NTA, Resource Q), labeled with FlAsH-EDT2; not shown: His6, N-terminal, kept; SUMO, N-terminal, kept
B7: FlAsH-labeled His6-SUMO-yUfd1^288–305-GWCCPGCC M305A (peptide, UniProt P53044 288-305, looked up)
chain: {His6-SUMO}-EPAKLDLPEGQLFFGFPAGWCCPGCC
modifications: cysteine pairing not given here; also: FlAsH label bound to CCPGCC motif
notes: Ufd1 of Saccharomyces cerevisiae (yUfd1), residues 288-305 (NBM); also called yUfd1 M305A; source: E. coli Rosetta (DE3) (pCold-SUMO), purified (Ni-NTA, Resource Q), labeled with FlAsH-EDT2; not shown: His6, N-terminal, kept; SUMO, N-terminal, kept
B8: FlAsH-labeled His6-SUMO-yUfd1^288–305-GWCCPGCC L299A (peptide, UniProt P53044 288-305, looked up)
chain: {His6-SUMO}-EPAKLDLPEGQAFFGFPMGWCCPGCC
modifications: cysteine pairing not given here; also: FlAsH label bound to CCPGCC motif
notes: Ufd1 of Saccharomyces cerevisiae (yUfd1), residues 288-305 (NBM); also called yUfd1 L299A; source: E. coli Rosetta (DE3) (pCold-SUMO), purified (Ni-NTA, Resource Q), labeled with FlAsH-EDT2; not shown: His6, N-terminal, kept; SUMO, N-terminal, kept
B9: FlAsH-labeled His6-SUMO-yUfd1^288–305-GWCCPGCC L292A (peptide, UniProt P53044 288-305, looked up)
chain: {His6-SUMO}-EPAKADLPEGQLFFGFPMGWCCPGCC
modifications: cysteine pairing not given here; also: FlAsH label bound to CCPGCC motif
notes: Ufd1 of Saccharomyces cerevisiae (yUfd1), residues 288-305 (NBM); also called yUfd1 L292A; source: E. coli Rosetta (DE3) (pCold-SUMO), purified (Ni-NTA, Resource Q), labeled with FlAsH-EDT2; not shown: His6, N-terminal, kept; SUMO, N-terminal, kept
B10: FlAsH-labeled His6-SUMO-yUfd1^288–305-GWCCPGCC G297R (peptide, UniProt P53044 288-305, looked up)
chain: {His6-SUMO}-EPAKLDLPERQLFFGFPMGWCCPGCC
modifications: cysteine pairing not given here; also: FlAsH label bound to CCPGCC motif
notes: Ufd1 of Saccharomyces cerevisiae (yUfd1), residues 288-305 (NBM); also called yUfd1 G297R; source: E. coli Rosetta (DE3) (pCold-SUMO), purified (Ni-NTA, Resource Q), labeled with FlAsH-EDT2; not shown: His6, N-terminal, kept; SUMO, N-terminal, kept
B11: FlAsH-labeled His6-SUMO-yUfd1^288–305-GWCCPGCC G297Y (peptide, UniProt P53044 288-305, looked up)
chain: {His6-SUMO}-EPAKLDLPEYQLFFGFPMGWCCPGCC
modifications: cysteine pairing not given here; also: FlAsH label bound to CCPGCC motif
notes: Ufd1 of Saccharomyces cerevisiae (yUfd1), residues 288-305 (NBM); also called yUfd1 G297Y; source: E. coli Rosetta (DE3) (pCold-SUMO), purified (Ni-NTA, Resource Q), labeled with FlAsH-EDT2; not shown: His6, N-terminal, kept; SUMO, N-terminal, kept
B12: FlAsH-labeled His6-SUMO-yUfd1^288–305-GWCCPGCC F303A (peptide, UniProt P53044 288-305, looked up)
chain: {His6-SUMO}-EPAKLDLPEGQLFFGAPMGWCCPGCC
modifications: cysteine pairing not given here; also: FlAsH label bound to CCPGCC motif
notes: Ufd1 of Saccharomyces cerevisiae (yUfd1), residues 288-305 (NBM); also called yUfd1 F303A; source: E. coli Rosetta (DE3) (pCold-SUMO), purified (Ni-NTA, Resource Q), labeled with FlAsH-EDT2; not shown: His6, N-terminal, kept; SUMO, N-terminal, kept

The term Kd denotes the free concentration of one partner at which half of the binding sites on the other are occupied at equilibrium, for simple one-to-one binding.

In the first experiment the target is T2, Cdc48 (recombinant, hexameric) (Saccharomyces cerevisiae, UniProt P25694 1-835).
T2 construct: Cdc48 AAA-family ATPase of Saccharomyces cerevisiae; source: E. coli Rosetta (DE3) (pET21a), purified (TALON resin, Superose 6)
T2 sequence (P25694 whole entry): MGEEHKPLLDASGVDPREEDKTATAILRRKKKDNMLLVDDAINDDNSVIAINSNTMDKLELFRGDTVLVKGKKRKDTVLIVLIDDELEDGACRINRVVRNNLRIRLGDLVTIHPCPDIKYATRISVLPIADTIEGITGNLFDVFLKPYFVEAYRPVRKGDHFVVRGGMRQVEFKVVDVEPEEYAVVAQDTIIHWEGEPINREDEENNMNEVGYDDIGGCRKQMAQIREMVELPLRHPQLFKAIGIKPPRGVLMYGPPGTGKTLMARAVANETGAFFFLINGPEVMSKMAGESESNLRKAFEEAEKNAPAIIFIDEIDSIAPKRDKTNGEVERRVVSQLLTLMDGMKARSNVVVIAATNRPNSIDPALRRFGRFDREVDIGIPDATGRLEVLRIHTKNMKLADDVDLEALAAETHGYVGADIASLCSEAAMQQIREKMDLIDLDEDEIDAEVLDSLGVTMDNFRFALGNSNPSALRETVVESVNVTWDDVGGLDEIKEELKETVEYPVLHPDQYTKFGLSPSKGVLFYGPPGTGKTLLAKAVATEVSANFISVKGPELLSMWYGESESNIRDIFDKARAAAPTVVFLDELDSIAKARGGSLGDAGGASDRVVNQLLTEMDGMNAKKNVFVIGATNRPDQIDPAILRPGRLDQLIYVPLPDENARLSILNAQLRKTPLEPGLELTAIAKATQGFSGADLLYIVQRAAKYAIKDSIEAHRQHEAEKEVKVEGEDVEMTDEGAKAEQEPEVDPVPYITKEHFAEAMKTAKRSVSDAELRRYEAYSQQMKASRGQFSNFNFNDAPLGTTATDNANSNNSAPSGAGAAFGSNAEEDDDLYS
In words: pull-down; GST-yNpl4 (0.5 μM, wild type or mutant) on Glutathione Sepharose 4B beads, 1 h at room temperature with 0.5 μM yUfd1, 3 μM Cdc48 (0.5 μM hexamer) and 1 μg K48 chains in 100 μL 50 mM Tris-HCl pH 7.5, 100 mM NaCl, 10% glycerol, 0.1% Triton X-100; chains detected by anti-Ub immunoblot, proteins by Ponceau S. The conditions noted are these: both partners purified. (In general: A western blot detects proteins with antibodies after separation by electrophoresis.)
For B1, the binding result is reported as “binds”.
In the case of B2, the binding result is on record as “binds”.

The target of another experiment is T1, His6-yNpl4^113–580. Kind of experiment: fluorescence polarisation; fluorescence anisotropy; 1 nM FlAsH-labeled His6-SUMO-yUfd1 peptide, His6-yNpl4^113–580 in two-fold dilution series; 25 °C; 50 mM Tris-HCl pH 8.0, 100 mM NaCl, 5 mM β-mercaptoethanol, 0.1 g/L BSA. The conditions noted are these: both partners purified. (In general: Polarisation of emitted light reports the rotation of a fluorescent probe.)
For B3, the Kd came out at 0.437 µM.
The molecule B4 registered a Kd of 0.527 µM.
B5 displayed a Kd of 0.619 µM.
For the molecule B6, the affinity, expressed as Kd, was 20.8 µM.
The molecule B7 had a Kd of 0.261 µM.
For the molecule B8, the Kd came out at 12.7 µM. This Kd is about 49-fold higher than that of the molecule before.
With B9, the Kd is 5.29 µM.
B10 yielded a Kd of 20.9 µM.
On the same count and under the same terms, the figure for B11 is 2.14 µM; for B12 it is 1.77 µM.
